Numbered stars: 1 amine (or outer) side, 2 acyl side, 3 side chain; on linkers, the order of the positions; unused ones are H or OH. Bridge positions count the residues as written; N and C are the ends. Square brackets hold non-standard residues; d marks the D form. Ends that are not written are not given here. Peptide text beside a SMILES is read from it. N(6-aminohexyl)Gly = O=C(CN(CCCCCCN[*:3])[*:1])[*:2]; NGly(3-aminopropyl) = O=C(CN(CCCN[*:3])[*:1])[*:2]; CO = O=C([*:1])[*:2]; Sar = CNCC(=O)O
Key:
[1] = system: Brush Border Membrane Vesicle (BBMV) enzymes; assay: in vitro; assay type: in vitro ADME; details: rat BBMV
Method: A few of the peptides from the library were selected for further evaluation. The TAPS c(2-6) representative MOP agonists, TAPS c(6-2) and TAPS c(4-2) were not evaluated for opioid receptor interaction, and two non-active cyclic peptides, TAPS c(3-2) and TAPS c(6-6), having a smaller and larger ring sizes, respectively. The backbone-cyclic peptide stability in the GI tract was evaluated using rat origin pooled Brush Border Membrane Vesicle (BBMV) enzymes and were compared to the stability of linear TAPS (Figure 6).
1. Mass spectrometry analyses … 1
2. Metabolic Stability in BBMVs … 1
2.1 Preparation of BBMVs … 1
2.2 Experimental protocol for BBMVs … 2
3.1 In vitro cell based model: Caco-2 cell culture permeability studies … 2 3.1.1 Growth and Maintenance of the Cells: … 2
3.1.2 Preparation of the Cells for Transport Studies: … 2
3.2 Experimental Protocol … 2
3.3 Data Analysis of In Vitro Studies … 3
3.4 Statistical Analysis of the In Vitro Studies … 3
3.5 Statistical Analysis of Pharmacodynamic Studies … 3
3.6 Analytical Methods for Compound Concentration … 3
5. Supplementary Figures … 6
6. Supplementary Tables … 7
1. Mass spectrometry analyses
Mass spectra were acquired on a LCQ Fleet Ion Trap mass spectrometer (Thermo Scientific) utilizing electrospray ionization. For high resolution mass spectrometry (HRMS) analyses, the spectra were recorded on an Agilent 6550 iFunnel Q-TOF LC/MS system.
2. […]

[2] = Caco-2 permeability assay; details: human
mice = assay: Mouse open field test (locomotor adverse effect); details: 5 mg/kg IP
Method: In the mouse open field test (OF test), the distance and speed the animal moves over a 5-min time period is recorded, giving an indication as to whether a medication administered affected its locomotor activity. TAPS c(2-6) (5 or 15 mg/kg) was administered via IP administration and compared to morphine (5 mg/kg) and vehicle (PBS).
Male ICR mice (Harlan, Israel) 7 weeks of age (25–27) were used for all pharmacodynamic experiments after 5-day acclimation to laboratory conditions. Animals were allowed free access to food (standard commercial, sterile rodent diet) and water throughout the experiments and kept in automatically controlled environmental conditions for temperature and humidity levels in a 12-h dark-light cycle.
Animals were placed in the OF apparatus for a period of 5 min. The apparatus utilizes computerized monitoring which measures the speed and distance the animal walks during the measurement period. […] Baseline measurements were taken 1 day before initiation of the experiments and again at 0.5, 1.5, 3, and 5 h post injection.

[3] = target: T1, human recombinant μ (MOP, OPRM1) receptor (Homo sapiens, UniProt P35372); assay: MOP opioid receptor functional agonism in CHO cells expressing human recombinant μ receptors; assay type: cell-based; details: At 10^−6 M, percent of control specific agonist response, values lower than 25% not significant
T1 construct: host or cells: CHO cells
Method: (§1) Peptides were tested for μ (MOP, OPRM1) and δ (DOP, OPRD2) opioid receptor activation functional agonism and antagonism using CHO cells expressing human recombinant μ receptors and NG-10815 cells which express significant endogenous levels of δ opioid receptors. The cultures were incubated for 10 min at 37°C followed by impedance measurements of CHO cells and cAMP was assayed by the HTRF method using NG-10815 cells, according to CEREP standard assay protocols. The respective reference, non-peptide small molecules were tested concurrently with the TAPS analogs. The agonist compounds were: DPDPE (selective agonist of DOP receptor) and DAMGO (high MOP receptor specificity) and the antagonist compounds were: Naltrindole (selective DOP receptor antagonist) and CTOP (MOP receptor antagonist). […] The results are expressed as a percentage of respective control-specific response. […] These findings indicate that TAPS cyclic peptides are MOP selective full agonists. […] The cyclic TAPS peptide had lower activity than the linear parent TAPS peptide (90 ± 5%) – a finding that can be attributed to their restricted conformation relative to the flexible linear peptide conformation.
Evaluation of the Agonist Activity of Compounds at the Human μ Receptor in Transfected CHO Cells, Determined by Measuring Their Effects on cAMP modulation Using the HTRF Detection Method
Thereafter, the adenylyl cyclase activator NKH 477 is added at a final concentration of […]. Following 10 min incubation at 37°C, the cells are lysed and the fluorescence acceptor (D2-labeled cAMP) and fluorescence donor (anti-cAMP antibody labeled with europium cryptate) are added. After 60 min at room temperature, the fluorescence transfer is measured at lex = 337 nm and lem = 620 and 665 nm using a microplate reader (Rubystar, BMG). The cAMP concentration is determined by dividing the signal measured at 665 nm by that measured at 620 nm (ratio). The results are expressed as a percent of the control response to 1 μM DAMGO. The standard reference agonist is DAMGO, which is tested in each experiment at several concentrations to generate a concentration-response curve from which its EC50 value is calculated.
(§2) The respective reference, non-peptide small molecules were tested concurrently with the TAPS analogs; Agonist compounds DPDPE ([D-Pen2,D-Pen5]enkephalin), selective agonist of DOP receptor at 2 × 10^−9 M and DAMGO ([D-Ala2, N-MePhe4, Gly-ol] enkephalin), high MOP specificity at 2.5 × 10^−9 M; Antagonist compounds: naltrindole 7-(cyclopropylmethyl)-6,7-dehydro-4,5α-epoxy-3,14-dihydroxy-6,7-2′,3′-indolomorphinan hydrochloride, selective DOP antagonist, 5 × 10^−10 M and CTOP (D-Phe-Cys-Tyr-D-Trp-Orn-Thr-Pen-Thr-NH2), MOP antagonist at 3.4 × 10^−7 M. Depending on the assay volume and solvent tolerance, the stock solutions were diluted to [100×], [333×] or [1,000×] in 100% DMEM solvent, then either added directly or further diluted to [10×] or [5×] in H2O or Hank's balanced salt solution (HBSS) before addition to the assay well (final solvent concentration kept constant). The cultures were incubated for 10 min at 37°C followed by impedance measurements using cellular dielectric spectroscopy of CHO cells and cAMP was assayed by homogeneous time resolved fluorescence (HTRF) method using NG-10815 cells, according to CEREP standard assay protocols (https://euroscreenfast.com/assays/opioid-orl1-camp-fast-0360c; https://euroscreenfast.com/assays/opioid-op1-delta-camp-fast-0379c). The results (mean of three experiments) are expressed as a percent of control specific agonist response [(measured TAPS specific response/control specific agonist response) × 100] and as a percent inhibition of control specific agonist response [100 – (measured TAPS specific response/control specific agonist response) × 100] obtained in the presence of the TAPS compounds. […]

[4] = target: T2, δ (DOP, OPRD2) opioid receptor (Mus musculus, UniProt P32300); assay: DOP opioid receptor functional agonism in NG-10815 cells; assay type: cell-based, rat; details: At 10^−6 M, percent of control specific agonist response
T2 construct: NG-10815 cells which express significant endogenous levels of δ opioid receptors; host or cells: NG-10815 (NG108-15) mouse N18TG2 neuroblastoma x rat C6-BU-1 glioma hybrid cells
Method: as §1
Evaluation of the Agonist Activity of Compounds at the Rat delta2 Receptor Endogenously Expressed in NG-10815 Cells, Determined by Measuring Their Effects on Impedance Modulation Using the CellKey (CDS) Detection Method
Cells are seeded onto 96-well plate coated with fibronectin at 2 × 10^5 cells/well in HBSS buffer (Invitrogen) + 20 mM HEPES (Invitrogen) with 0.1% BSA and allowed to equilibrate for 60 min at 37°C before the start of the experiment. Plates are placed onto the system and measurements are made at a temperature of 37°C. […] Impedance measurements are monitored for 10 min after ligand addition. The standard reference agonist is DPDPE, which is tested in each experiment at several concentrations to generate a concentration-response curve from which its EC50 value is calculated.
as §2, with “https://euroscreenfast.com/assays/opioid-op1-delta-camp-fast-0379c).” for “https://euroscreenfast.com/assays/opioid-op1-delta-camp-fast-0379c). The results (mean of three experiments) are expressed as a percent of control specific agonist response [(measured TAPS specific response/control specific agonist response) × 100] and as a percent inhibition of control specific agonist response [100 – (measured TAPS specific response/control specific agonist response) × 100] obtained in the presence of the TAPS compounds.”

[5] = target: T2, δ (DOP, OPRD2) opioid receptor; assay: DOP opioid receptor functional antagonism in NG-10815 cells; assay type: cell-based, rat; details: Between 10^−9-10^−6 M, percent inhibition of control specific agonist response
Method: as §1
(§3) The respective reference, non-peptide small molecules were tested concurrently with the TAPS analogs; Agonist compounds DPDPE ([D-Pen2,D-Pen5]enkephalin), selective agonist of DOP receptor at 2 × 10^−9 M and DAMGO ([D-Ala2, N-MePhe4, Gly-ol] enkephalin), high MOP specificity at 2.5 × 10^−9 M; Antagonist compounds: naltrindole 7-(cyclopropylmethyl)-6,7-dehydro-4,5α-epoxy-3,14-dihydroxy-6,7-2′,3′-indolomorphinan hydrochloride, selective DOP antagonist, 5 × 10^−10 M and CTOP (D-Phe-Cys-Tyr-D-Trp-Orn-Thr-Pen-Thr-NH2), MOP antagonist at 3.4 × 10^−7 M. Depending on the assay volume and solvent tolerance, the stock solutions were diluted to [100×], [333×] or [1,000×] in 100% DMEM solvent, then either added directly or further diluted to [10×] or [5×] in H2O or Hank's balanced salt solution (HBSS) before addition to the assay well (final solvent concentration kept constant). The cultures were incubated for 10 min at 37°C followed by impedance measurements using cellular dielectric spectroscopy of CHO cells and cAMP was assayed by homogeneous time resolved fluorescence (HTRF) method using NG-10815 cells, according to CEREP standard assay protocols (https://euroscreenfast.com/assays/opioid-orl1-camp-fast-0360c; https://euroscreenfast.com/assays/opioid-op1-delta-camp-fast-0379c). The results (mean of three experiments) are expressed as a percent of control specific agonist response [(measured TAPS specific response/control specific agonist response) × 100] and as a percent inhibition of control specific agonist response [100 – (measured TAPS specific response/control specific agonist response) × 100] obtained in the presence of the TAPS compounds. Results showing a stimulation or an inhibition lower than 25% were considered not significant and mostly attributable to variability of the signal around the control level. Results showing a stimulation or an inhibition higher than 50% were considered to represent significant effects of the TAPS compounds.

[6] = target: T1, human recombinant μ (MOP, OPRM1) receptor; assay: MOP opioid receptor functional antagonism in CHO cells expressing human recombinant μ receptors; assay type: cell-based; details: Between 10^−9-10^−6 M, percent inhibition of control specific agonist response, values lower than 25% not significant
Method: as §1, §3

T1 sequence (P35372 whole entry): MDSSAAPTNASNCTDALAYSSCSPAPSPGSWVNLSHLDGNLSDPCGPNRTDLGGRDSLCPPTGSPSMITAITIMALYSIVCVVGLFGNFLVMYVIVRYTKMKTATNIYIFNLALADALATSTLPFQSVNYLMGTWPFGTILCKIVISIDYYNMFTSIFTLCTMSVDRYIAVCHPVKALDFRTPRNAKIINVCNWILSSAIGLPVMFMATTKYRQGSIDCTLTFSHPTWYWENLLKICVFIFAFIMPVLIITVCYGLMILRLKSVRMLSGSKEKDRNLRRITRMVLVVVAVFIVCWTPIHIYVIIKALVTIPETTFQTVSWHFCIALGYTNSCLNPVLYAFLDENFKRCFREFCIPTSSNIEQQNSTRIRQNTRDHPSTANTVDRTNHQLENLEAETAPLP
T2 sequence (P32300 whole entry): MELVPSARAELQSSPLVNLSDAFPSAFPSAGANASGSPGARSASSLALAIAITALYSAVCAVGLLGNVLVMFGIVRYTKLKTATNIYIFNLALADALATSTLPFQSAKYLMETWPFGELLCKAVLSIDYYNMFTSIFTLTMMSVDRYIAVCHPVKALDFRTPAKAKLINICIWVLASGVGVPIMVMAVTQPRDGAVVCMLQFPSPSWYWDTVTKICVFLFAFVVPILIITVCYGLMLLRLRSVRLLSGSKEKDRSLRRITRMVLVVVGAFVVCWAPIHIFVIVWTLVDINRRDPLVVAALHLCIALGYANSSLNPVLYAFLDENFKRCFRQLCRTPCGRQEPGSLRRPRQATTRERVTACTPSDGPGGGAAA

Row | Molecule | MOP agonist (%) [3] | DOP agonist (%) [4] | DOP antagonist (%) [5] | MOP antagonist (%) [6] | also measured
1 | CN(CC(=O)O)C(=O)[C@H](Cc1ccccc1)NC(=O)[C@@H](CCCN=C(N)N)NC(=O)[C@@H](N)Cc1ccc(O)cc1 [Linear, Tyr-D-Arg-Phe-Sar] (H-Y[dR]F[Sar]-OH) |  |  |  |  | metabolised at 0.5 h ([1]; male, Wistar, kidney or brush border membranes, pH 7.4, after treatment for 30 min, read-out: peptide degraded by intestinal enzymes): > 80%; peptide fate with intestinal enzymes ([1]; after 60 min): decomposed
2 | COCCc1ccc(OCC(O)CNC(C)C)cc1 (stereo not drawn) [metoprolol, reference compound] |  |  |  |  | Papp at 150 min [2]: 13 ×10⁻⁶ cm/s
3 | CN1CC[C@]23c4c5ccc(O)c4O[C@H]2[C@@H](O)C=C[C@H]3[C@H]1C5 [morphine, reference compound] |  |  |  |  | locomotor effect (distance and speed of movement over 5 min) (mice): excitatory effect
4 | TAPS c(3-3): backbone-cyclic TAPS analog, urea bridge; ring size 16 (YRF[NGly(3-aminopropyl)]-NH2; bridge 2-4 via CO; not fully specified (residue 2); also: urea bridge between the two N-alkyl chains) | 1% | 14% | 11% | 2% | 
5 | TAPS c(6-6): backbone-cyclic TAPS analog, urea bridge; ring size 22 (YRF[N(6-aminohexyl)Gly]-NH2; bridge 2-4 via CO; not fully specified (residue 2); also: urea bridge between the two N-alkyl chains) | 21% | 1% | 6% | 3% | 

From paper PMC7689096, “Cyclizing Painkillers: Development of Backbone-Cyclic TAPS Analogs” (Frontiers in Chemistry, 2020)
